What was measured:
AncSZ = test: phosphorylation enrichment, bacterial display (enrichment ratio); higher = better substrate or ligand; peptides without Tyr show the background
EPHB1 = EPHB1 (UniProt P54762); test: as above
EPHB2 = EPHB2 (UniProt P29323); test: as above
FGFR1 = FGFR1 (UniProt P11362); test: as above
FGFR3 = FGFR3 (UniProt P22607); test: as above
Fer (mouse) = test: as above
Fes = Fes (UniProt P07332); test: as above
Fyn = Fyn (UniProt P06241); test: as above
Hck = Hck (UniProt P08631); test: as above
Hck, sequence (P08631 whole entry, looked up): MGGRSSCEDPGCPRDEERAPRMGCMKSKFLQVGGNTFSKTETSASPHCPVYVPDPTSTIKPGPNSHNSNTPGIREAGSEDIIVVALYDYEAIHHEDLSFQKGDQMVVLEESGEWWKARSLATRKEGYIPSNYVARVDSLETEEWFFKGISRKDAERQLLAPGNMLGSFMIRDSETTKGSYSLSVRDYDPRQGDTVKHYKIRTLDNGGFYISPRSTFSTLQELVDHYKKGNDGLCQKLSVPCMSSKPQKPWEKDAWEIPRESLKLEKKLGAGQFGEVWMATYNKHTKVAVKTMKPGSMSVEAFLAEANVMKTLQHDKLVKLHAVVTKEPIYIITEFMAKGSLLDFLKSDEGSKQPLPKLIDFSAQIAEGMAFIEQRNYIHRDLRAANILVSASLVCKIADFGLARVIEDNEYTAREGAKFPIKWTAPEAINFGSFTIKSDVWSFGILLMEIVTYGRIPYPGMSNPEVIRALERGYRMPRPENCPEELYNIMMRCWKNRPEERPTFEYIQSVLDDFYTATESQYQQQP

Jak2 = Jak2 (UniProt O60674); test: as above
Jak2, sequence (O60674 whole entry, looked up): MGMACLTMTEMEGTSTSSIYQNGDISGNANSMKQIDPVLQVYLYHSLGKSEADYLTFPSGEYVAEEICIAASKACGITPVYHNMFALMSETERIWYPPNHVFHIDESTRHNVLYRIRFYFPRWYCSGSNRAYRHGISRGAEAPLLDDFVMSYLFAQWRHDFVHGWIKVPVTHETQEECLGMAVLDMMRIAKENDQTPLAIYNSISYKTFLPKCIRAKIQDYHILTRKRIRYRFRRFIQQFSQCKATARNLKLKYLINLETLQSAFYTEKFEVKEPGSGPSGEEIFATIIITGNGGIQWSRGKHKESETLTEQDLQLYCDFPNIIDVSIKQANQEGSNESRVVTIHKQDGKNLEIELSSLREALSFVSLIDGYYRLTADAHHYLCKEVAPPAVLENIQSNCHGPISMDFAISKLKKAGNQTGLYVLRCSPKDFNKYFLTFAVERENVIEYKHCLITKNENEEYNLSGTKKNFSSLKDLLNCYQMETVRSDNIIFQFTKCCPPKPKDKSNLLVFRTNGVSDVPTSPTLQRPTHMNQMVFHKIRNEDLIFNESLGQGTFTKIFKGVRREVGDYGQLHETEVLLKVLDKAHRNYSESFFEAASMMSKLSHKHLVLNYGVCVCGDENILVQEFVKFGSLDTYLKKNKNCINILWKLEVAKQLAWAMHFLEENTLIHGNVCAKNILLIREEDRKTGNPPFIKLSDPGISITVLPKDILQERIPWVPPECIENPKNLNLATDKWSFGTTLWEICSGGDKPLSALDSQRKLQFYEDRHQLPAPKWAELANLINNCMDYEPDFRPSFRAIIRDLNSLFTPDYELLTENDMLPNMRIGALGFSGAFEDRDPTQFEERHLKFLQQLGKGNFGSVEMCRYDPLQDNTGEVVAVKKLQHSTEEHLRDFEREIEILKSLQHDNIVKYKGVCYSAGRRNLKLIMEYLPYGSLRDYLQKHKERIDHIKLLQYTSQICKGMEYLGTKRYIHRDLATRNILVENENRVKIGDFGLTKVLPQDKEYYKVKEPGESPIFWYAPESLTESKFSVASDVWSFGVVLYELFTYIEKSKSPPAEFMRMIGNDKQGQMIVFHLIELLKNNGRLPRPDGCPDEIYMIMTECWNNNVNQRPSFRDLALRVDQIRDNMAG

MERTK = MERTK (UniProt Q12866); test: as above
c-Abl (mouse) = test: as above
c-Src = test: as above
Grb2 SH2 = Grb2 SH2 (UniProt P62993); test: SH2 binding enrichment of the phosphorylated peptide, bacterial display (enrichment ratio); higher = better substrate or ligand; peptides without Tyr show the background
SHP2-C SH2 = test: as above
c-Src SH2 = test: as above
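For SH2 binding enrichment of the phosphorylated peptide, bacterial display in this document: peptide library displayed on the E. coli surface as eCPX fusions, selected cells deep-sequenced, score is each peptide's frequency after selection divided by its frequency in the input.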
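For phosphorylation enrichment, bacterial display in this document: 11-residue human phosphosite peptides and single-mutation variants displayed on the E. coli surface, counted by deep sequencing, each peptide's frequency after selection divided by its frequency in the unselected input library; frequency after pTyr selection over input frequency; kinase dosed for 20-30% of maximal phosphorylation in three min.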

FGFR3, sequence (P22607 whole entry, looked up): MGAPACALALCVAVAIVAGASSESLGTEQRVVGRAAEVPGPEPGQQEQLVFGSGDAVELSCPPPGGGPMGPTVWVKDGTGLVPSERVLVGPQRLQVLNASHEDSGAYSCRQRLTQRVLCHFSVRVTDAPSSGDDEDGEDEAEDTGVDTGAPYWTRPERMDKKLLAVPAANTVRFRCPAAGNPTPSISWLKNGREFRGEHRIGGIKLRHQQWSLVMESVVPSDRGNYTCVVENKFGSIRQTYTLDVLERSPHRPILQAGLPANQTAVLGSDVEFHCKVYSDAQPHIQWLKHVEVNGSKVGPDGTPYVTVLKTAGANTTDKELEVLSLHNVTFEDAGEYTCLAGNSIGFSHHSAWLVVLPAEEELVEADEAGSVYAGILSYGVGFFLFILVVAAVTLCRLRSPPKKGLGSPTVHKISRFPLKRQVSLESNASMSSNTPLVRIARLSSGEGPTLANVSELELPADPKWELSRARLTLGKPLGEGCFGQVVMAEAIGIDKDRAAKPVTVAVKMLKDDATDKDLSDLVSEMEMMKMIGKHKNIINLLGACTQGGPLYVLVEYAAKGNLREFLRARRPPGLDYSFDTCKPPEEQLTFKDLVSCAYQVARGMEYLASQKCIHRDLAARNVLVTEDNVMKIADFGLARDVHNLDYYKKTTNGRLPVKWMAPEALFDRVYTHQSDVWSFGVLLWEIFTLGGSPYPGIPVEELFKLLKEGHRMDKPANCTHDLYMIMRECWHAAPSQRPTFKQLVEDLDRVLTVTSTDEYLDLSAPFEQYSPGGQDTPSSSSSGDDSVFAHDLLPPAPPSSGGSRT
Fes, sequence (P07332 whole entry, looked up): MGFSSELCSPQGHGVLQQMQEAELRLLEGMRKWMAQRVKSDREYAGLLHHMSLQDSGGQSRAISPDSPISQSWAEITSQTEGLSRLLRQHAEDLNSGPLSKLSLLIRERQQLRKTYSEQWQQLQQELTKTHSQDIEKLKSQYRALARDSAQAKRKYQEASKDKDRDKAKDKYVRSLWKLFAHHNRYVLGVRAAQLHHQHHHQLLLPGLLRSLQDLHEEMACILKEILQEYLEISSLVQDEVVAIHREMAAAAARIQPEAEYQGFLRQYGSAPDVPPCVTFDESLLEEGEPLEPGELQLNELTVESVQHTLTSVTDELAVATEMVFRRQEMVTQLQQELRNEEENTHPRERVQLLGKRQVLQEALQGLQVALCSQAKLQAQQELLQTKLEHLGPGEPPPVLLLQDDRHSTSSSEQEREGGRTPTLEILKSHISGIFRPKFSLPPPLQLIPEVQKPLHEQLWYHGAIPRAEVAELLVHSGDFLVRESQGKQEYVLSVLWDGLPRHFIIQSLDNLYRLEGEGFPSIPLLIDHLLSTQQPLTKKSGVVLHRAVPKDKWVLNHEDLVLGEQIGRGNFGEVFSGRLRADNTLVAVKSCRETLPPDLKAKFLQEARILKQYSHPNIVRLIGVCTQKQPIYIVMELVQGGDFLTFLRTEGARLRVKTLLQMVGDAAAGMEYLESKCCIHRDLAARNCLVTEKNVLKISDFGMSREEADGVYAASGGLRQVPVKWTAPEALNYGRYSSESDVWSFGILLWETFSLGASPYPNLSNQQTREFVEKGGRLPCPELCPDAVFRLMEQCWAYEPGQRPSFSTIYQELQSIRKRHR
FGFR1, sequence (P11362 whole entry, looked up): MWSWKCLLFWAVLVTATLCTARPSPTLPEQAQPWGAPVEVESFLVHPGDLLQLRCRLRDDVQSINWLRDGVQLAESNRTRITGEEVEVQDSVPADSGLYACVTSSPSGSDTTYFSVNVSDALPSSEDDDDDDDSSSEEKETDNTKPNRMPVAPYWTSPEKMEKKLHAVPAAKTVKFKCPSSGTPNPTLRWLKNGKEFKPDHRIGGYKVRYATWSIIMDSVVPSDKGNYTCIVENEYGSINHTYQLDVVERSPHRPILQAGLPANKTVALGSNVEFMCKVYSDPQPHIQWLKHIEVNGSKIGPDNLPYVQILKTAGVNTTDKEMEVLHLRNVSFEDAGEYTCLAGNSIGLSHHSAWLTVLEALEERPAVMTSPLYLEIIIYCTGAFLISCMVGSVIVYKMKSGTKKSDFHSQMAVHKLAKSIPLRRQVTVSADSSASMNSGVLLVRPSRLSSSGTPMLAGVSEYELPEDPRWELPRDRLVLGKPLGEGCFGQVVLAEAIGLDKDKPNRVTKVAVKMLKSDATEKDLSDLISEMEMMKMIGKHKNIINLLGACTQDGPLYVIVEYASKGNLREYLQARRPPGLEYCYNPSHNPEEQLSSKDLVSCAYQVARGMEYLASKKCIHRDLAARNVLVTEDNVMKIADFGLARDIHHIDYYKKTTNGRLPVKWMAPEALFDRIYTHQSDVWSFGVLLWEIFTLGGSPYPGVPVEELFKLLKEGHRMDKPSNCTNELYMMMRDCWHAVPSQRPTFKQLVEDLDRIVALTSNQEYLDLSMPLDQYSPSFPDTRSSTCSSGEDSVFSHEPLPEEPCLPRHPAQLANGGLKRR
EPHB1, sequence (P54762 whole entry, looked up): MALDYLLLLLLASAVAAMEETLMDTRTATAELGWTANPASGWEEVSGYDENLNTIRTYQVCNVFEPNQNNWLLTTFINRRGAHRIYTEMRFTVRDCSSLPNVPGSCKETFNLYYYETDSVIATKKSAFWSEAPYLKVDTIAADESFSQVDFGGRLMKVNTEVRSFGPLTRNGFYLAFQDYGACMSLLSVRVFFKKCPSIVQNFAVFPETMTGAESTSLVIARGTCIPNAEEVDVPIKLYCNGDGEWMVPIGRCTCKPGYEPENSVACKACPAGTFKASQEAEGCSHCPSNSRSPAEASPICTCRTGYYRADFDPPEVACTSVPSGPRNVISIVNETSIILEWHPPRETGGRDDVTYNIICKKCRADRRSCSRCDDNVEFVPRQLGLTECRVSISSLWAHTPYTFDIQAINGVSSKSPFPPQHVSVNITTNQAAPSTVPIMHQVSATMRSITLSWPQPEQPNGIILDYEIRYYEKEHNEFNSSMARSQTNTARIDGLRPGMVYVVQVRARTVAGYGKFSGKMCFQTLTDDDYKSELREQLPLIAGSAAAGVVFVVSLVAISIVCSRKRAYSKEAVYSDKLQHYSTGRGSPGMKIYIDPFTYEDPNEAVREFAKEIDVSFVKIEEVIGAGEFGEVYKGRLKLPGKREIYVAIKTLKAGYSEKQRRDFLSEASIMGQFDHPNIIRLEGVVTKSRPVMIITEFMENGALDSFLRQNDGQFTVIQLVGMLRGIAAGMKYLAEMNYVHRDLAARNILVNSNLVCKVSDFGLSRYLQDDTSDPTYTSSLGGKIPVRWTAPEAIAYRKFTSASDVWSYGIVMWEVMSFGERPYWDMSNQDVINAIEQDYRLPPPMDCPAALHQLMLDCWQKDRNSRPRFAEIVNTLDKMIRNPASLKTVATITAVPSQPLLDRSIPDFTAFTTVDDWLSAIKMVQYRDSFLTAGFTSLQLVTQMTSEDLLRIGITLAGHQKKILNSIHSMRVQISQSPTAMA

| SH2 binding enrichment (Grb2 SH2) | SH2 binding enrichment (SHP2-C SH2) | SH2 binding enrichment (c-Src SH2) | Sequence | phosphorylation enrichment (AncSZ) | phosphorylation enrichment (EPHB1) | phosphorylation enrichment (EPHB2) | phosphorylation enrichment (FGFR1) | phosphorylation enrichment (FGFR3) | phosphorylation enrichment (Fer (mouse)) | phosphorylation enrichment (Fes) | phosphorylation enrichment (Fyn) | phosphorylation enrichment (Hck) | phosphorylation enrichment (Jak2) | phosphorylation enrichment (MERTK) | phosphorylation enrichment (c-Abl (mouse)) | phosphorylation enrichment (c-Src) |
| --- | --- | --- | --- | --- | --- | --- | --- | --- | --- | --- | --- | --- | --- | --- | --- | --- |
| 0.728 | 0.71 | 0.422 | PGAPAYRVLME [MYO5A_Y1245] | 0.592 | 0.397 | 0.585 | 0.379 | 0.726 | 0.671 | 1.29 | 0.542 | 0.564 | 1.06 | 0.566 | 1.52 | 0.423 |
| 1.15 | 1.06 | 1.01 | NFFDTCIKTCL [IQGAP2_Y1445_Y1445C_YF] | 0.809 | 0.484 | 0.491 | 0.476 | 0.607 | 0.45 | 1.01 | 0.369 | 0.407 | 0.879 | 0.523 | 0.721 | 0.521 |
| 0.964 | 0.687 | 0.57 | FMKEPYIQSRF [HIPK4_Y175_V171M_YF] | 0.54 | 0.257 | 0.412 | 0.372 | 0.449 | 0.275 | 0.643 | 0.332 | 0.393 | 0.807 | 0.452 | 0.548 | 0.474 |
| 0.706 | 0.935 | 0.49 | FHLGKYLQEVL [KLB_Y910_Y906H_YF] | 1.58 | 0.415 | 0.514 | 0.415 | 0.788 | 0.48 | 1.52 | 0.346 | 0.591 | 1.36 | 0.428 | 1.01 | 0.491 |
| 0.969 | 0.761 | 0.944 | GSERDYTYEEL [EIF2S2_Y174] | 1.36 | 0.602 | 0.645 | 0.535 | 0.711 | 0.6 | 1.13 | 1.09 | 1.21 | 1.29 | 0.707 | 0.977 | 1.63 |
| 0.951 | 0.677 | 0.662 | QRRLVYYERGA [RYR1_Y245_G248R] | 0.427 | 0.448 | 0.345 | 0.499 | 0.48 | 0.226 | 0.537 | 0.533 | 0.53 | 0.391 | 0.319 | 0.368 | 0.426 |
| 0.813 | 0.473 | 0.436 | ESLRRYLENGK [HLA-B_Y195_W191S] | 0.629 | 0.431 | 0.362 | 0.397 | 0.45 | 0.454 | 0.629 | 0.384 | 0.461 | 0.519 | 0.392 | 0.548 | 0.34 |
| 0.915 | 0.933 | 0.507 | GVRFIYTIDGS [DCX_Y105_YF] | 1.41 | 0.628 | 0.737 | 0.546 | 0.843 | 0.669 | 1.59 | 1.04 | 0.674 | 1.45 | 0.48 | 0.924 | 1.01 |
| 0.894 | 0.526 | 0.387 | RLSVDYSKKSK [TUBA3E_Y161] | 0.515 | 1.09 | 0.389 | 0.373 | 0.34 | 0.35 | 0.553 | 0.247 | 0.442 | 0.408 | 0.461 | 0.433 | 0.36 |
| 1.69 | 1.9 | 1.14 | LLLLFYVVRFC [MPZ_Y177_YF] | 0.918 | 0.741 | 0.443 | 1.47 | 0.742 | 1.14 | 1.21 | 0.637 | 0.472 | 0.664 | 0.805 | 0.863 | 0.726 |
| 1.02 | 0.933 | 0.608 | WSRAMYPDLGP [STARD8_Y330] | 0.745 | 0.396 | 0.397 | 0.467 | 0.575 | 0.435 | 0.779 | 0.463 | 0.463 | 0.579 | 0.478 | 0.52 | 0.39 |
| 0.945 | 0.73 | 0.551 | PVFEVYPLLNC [GATA1_Y78_Q76E] | 1.64 | 0.742 | 0.756 | 2.54 | 1.9 | 0.533 | 1.86 | 0.418 | 0.597 | 1.48 | 0.559 | 1.03 | 0.758 |
| 0.788 | 0.751 | 0.522 | RGEAVYSRDCV [XPC_Y676] | 0.997 | 0.764 | 0.655 | 0.718 | 1.01 | 0.472 | 1.2 | 2.95 | 2.93 | 1.01 | 0.857 | 0.692 | 2.34 |
| 1 | 0.816 | 1.05 | FCRHNYGAVES [HLA-DRB1_Y112_V114A_YF] | 0.628 | 0.674 | 0.555 | 0.471 | 0.604 | 0.42 | 0.826 | 0.359 | 0.441 | 0.856 | 0.439 | 0.83 | 0.527 |
| 0.995 | 0.832 | 0.564 | GFFDLYGGEKF [PTPN11_Y66_D61G_YF] | 0.906 | 0.603 | 0.858 | 0.484 | 0.575 | 0.72 | 1.05 | 2.13 | 3.85 | 0.914 | 0.504 | 0.767 | 2.7 |
| 0.984 | 0.615 | 0.922 | PGQAAYQKVVA [HBB_Y131_V127G] | 0.68 | 0.517 | 0.525 | 0.373 | 0.558 | 0.49 | 0.831 | 0.478 | 0.361 | 0.626 | 0.514 | 0.491 | 0.579 |
| 0.819 | 0.544 | 0.437 | ALTDNYMYLVI [HAGH_Y61] | 1.43 | 9.55 | 8.35 | 8.82 | 6.43 | 3.5 | 1.49 | 0.848 | 1.34 | 2.46 | 3.34 | 0.813 | 1.03 |
| 0.757 | 0.706 | 4.13 | PPPPAYDDVAQ [TNK2_Y635] | 1.16 | 0.579 | 0.669 | 0.467 | 0.591 | 0.547 | 0.993 | 0.45 | 0.439 | 1.03 | 0.676 | 0.806 | 0.622 |

The remaining lines, values behind:

| Sequence | SH2 binding enrichment (Grb2 SH2) | SH2 binding enrichment (SHP2-C SH2) | SH2 binding enrichment (c-Src SH2) | phosphorylation enrichment (AncSZ) | phosphorylation enrichment (EPHB1) | phosphorylation enrichment (EPHB2) | phosphorylation enrichment (FGFR1) | phosphorylation enrichment (FGFR3) | phosphorylation enrichment (Fer (mouse)) | phosphorylation enrichment (Fes) | phosphorylation enrichment (Fyn) | phosphorylation enrichment (Hck) | phosphorylation enrichment (Jak2) | phosphorylation enrichment (MERTK) | phosphorylation enrichment (c-Abl (mouse)) | phosphorylation enrichment (c-Src) |
| --- | --- | --- | --- | --- | --- | --- | --- | --- | --- | --- | --- | --- | --- | --- | --- | --- |
| FQEKGYNKEPR [CHRND_Y38_L42P] | 1 | 0.981 | 0.67 | 0.895 | 0.738 | 0.627 | 0.587 | 0.569 | 0.571 | 0.868 | 0.649 | 0.655 | 0.691 | 0.644 | 0.912 | 0.57 |
| KTTILYKLKLG [ARF1_Y35] | 1.33 | 0.973 | 0.865 | 1.01 | 0.41 | 0.411 | 0.404 | 0.688 | 0.426 | 1 | 0.358 | 0.401 | 0.909 | 0.376 | 0.719 | 0.336 |
| PAGSGYPAYLG [ATP6V1A_Y374_D371G] | 0.884 | 0.688 | 0.396 | 0.782 | 1.22 | 0.638 | 1.17 | 0.914 | 0.866 | 0.752 | 0.574 | 0.645 | 0.727 | 0.442 | 0.525 | 0.417 |
| ATDLAYFLVCK [ASL_Y375_R379C_YF] | 0.776 | 0.748 | 0.425 | 1.6 | 0.789 | 0.617 | 1.16 | 1.26 | 0.698 | 1.61 | 0.564 | 0.674 | 2.42 | 0.517 | 1.1 | 0.655 |
| LAGRFYALKSM [CKB_Y174_YF] | 1.23 | 1.11 | 1.12 | 1.86 | 0.677 | 0.573 | 0.479 | 0.991 | 0.46 | 1.61 | 0.463 | 0.509 | 1.32 | 0.666 | 1.18 | 0.461 |
| MKSIKYMDKEI [CCDC60_Y41] | 0.797 | 0.525 | 0.405 | 0.578 | 0.399 | 0.392 | 0.452 | 0.389 | 0.514 | 0.569 | 0.375 | 0.402 | 0.603 | 0.44 | 0.457 | 0.447 |
| FNSLPYQVPTS [CALCOCO2_Y358] | 1.12 | 0.871 | 0.843 | 0.942 | 0.464 | 0.504 | 0.431 | 0.578 | 1.36 | 0.63 | 0.467 | 0.56 | 0.611 | 1.34 | 2.56 | 0.561 |
| MTEEQYIKMNR [ARFGEF2_Y797_K794E] | 0.674 | 0.435 | 0.376 | 0.941 | 0.478 | 0.502 | 0.558 | 0.638 | 0.524 | 1.09 | 0.451 | 0.493 | 1.02 | 0.386 | 0.612 | 0.441 |
| TSSAGYRRTPS [ABI1_Y333_G331A] | 1.03 | 0.405 | 0.45 | 0.565 | 0.42 | 0.497 | 0.499 | 0.491 | 0.36 | 0.594 | 0.484 | 0.446 | 0.476 | 0.392 | 0.576 | 0.444 |
| DAVKHYMQFQK [CNGA2_Y395_R399Q] | 0.768 | 0.781 | 0.62 | 0.548 | 0.451 | 0.301 | 0.348 | 0.449 | 0.424 | 0.496 | 0.429 | 0.552 | 0.461 | 0.473 | 0.356 | 0.485 |
| IHFPPYTDWNQ [ALDH3B2_Y365_YF] | 0.979 | 0.736 | 0.821 | 1.01 | 0.695 | 0.524 | 0.659 | 0.685 | 1.04 | 1.03 | 0.526 | 0.519 | 0.894 | 0.431 | 0.687 | 0.52 |
| RIFDYYSARKA [STOX1_Y858] | 1.48 | 0.648 | 0.469 | 0.959 | 0.499 | 0.656 | 0.614 | 0.612 | 0.7 | 1.28 | 0.713 | 0.792 | 1.16 | 0.582 | 1.08 | 1.1 |
| LLTALYFISRG [KCNH2_Y780] | 2.34 | 1.99 | 2.43 | 1.57 | 0.645 | 0.859 | 0.8 | 0.71 | 0.716 | 1.69 | 0.732 | 1.24 | 1.25 | 3.27 | 1.05 | 1.81 |
| CTTILYNFMCN [TP53_Y234_H233L_YF] | 2.3 | 2.2 | 1.79 | 0.96 | 0.584 | 0.622 | 0.601 | 0.806 | 0.87 | 1.22 | 1.03 | 0.979 | 0.957 | 1.68 | 0.7 | 2.16 |
| GRVLGYGAFGK [FLT4_Y853] | 1.28 | 0.851 | 0.556 | 0.431 | 0.364 | 0.354 | 0.348 | 0.474 | 0.371 | 0.57 | 0.446 | 0.427 | 0.662 | 0.339 | 0.434 | 0.41 |

From the supplement of paper PMC10065799, “High-throughput profiling of sequence recognition by tyrosine kinases and SH2 domains using bacterial peptide display” (eLife, 2023)
